In publication PMC5675522 (Angiogenesis, 2017) one finds EC50 and Kd data, which are given here for 1 molecule.

Assay [1] has as its target T1, recombinant human SFRP2 (secreted frizzled-related protein 2) with C-terminal hexahistidine tag (human, UniProt Q96HF1 25-295).
T1 sequence (looked up): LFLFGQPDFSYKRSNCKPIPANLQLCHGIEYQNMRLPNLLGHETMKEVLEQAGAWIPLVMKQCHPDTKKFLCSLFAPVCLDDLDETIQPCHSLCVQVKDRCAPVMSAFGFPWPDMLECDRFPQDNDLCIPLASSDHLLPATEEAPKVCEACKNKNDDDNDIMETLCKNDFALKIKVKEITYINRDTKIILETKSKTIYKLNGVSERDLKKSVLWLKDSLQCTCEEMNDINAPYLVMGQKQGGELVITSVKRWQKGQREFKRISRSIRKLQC
As to the kind of experiment: ELISA. For orientation: In an ELISA, binding on a coated surface is turned into a signal by an enzyme label.

For a further assay, the target named is T2, recombinant human Wnt5a (human, UniProt P41221 62-380).
T2 sequence (looked up): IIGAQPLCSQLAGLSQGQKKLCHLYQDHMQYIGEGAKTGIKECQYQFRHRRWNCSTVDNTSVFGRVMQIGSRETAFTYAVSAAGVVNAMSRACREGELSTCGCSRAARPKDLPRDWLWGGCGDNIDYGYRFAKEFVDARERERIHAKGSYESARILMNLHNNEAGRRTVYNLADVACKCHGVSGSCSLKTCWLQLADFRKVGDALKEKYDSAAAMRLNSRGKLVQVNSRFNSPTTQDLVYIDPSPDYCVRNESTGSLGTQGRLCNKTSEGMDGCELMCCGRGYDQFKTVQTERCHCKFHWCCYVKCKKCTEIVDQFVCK
As to the kind of experiment: ELISA.

B1: Frizzled-5 Fc Fusion protein (Fc fusion, human, UniProt Q13467 27-238, looked up)
chain: ASKAPVCQEITVPMCRGIGYNLTHMPNQFNHDTQDEAGLEVHQFWPLVEIQCSPDLRFFLCSMYTPICLPDYHKPLPPCRSVCERAKAGCSPLMRQYGFAWPERMSCDRLPVLGRDAEVLCMDYNRSEATTAPPRPFPAKPTLPGPPGAPASGGECPAGGPFVCKCREPFVPILKESHPLYNKVRTGQVPNCAVPCYQPSFSADERTFATFW
For orientation: EC50 means the concentration needed to bring the measured effect to its halfway point. One may read the Kd as a measure of binding affinity in units of concentration. For the molecule B1, in assay [1], the EC50 stood at 205 nM and the Kd worked out at 103 nM. Moreover, in the assay with recombinant human Wnt5a, the EC50 came to 216 nM and the Kd turned out to be 108 nM.
